Like-named read-outs stand apart in the source and are kept apart here.
Experiments:
[1] = molecular target: T1, Mouse IgG1 Fc fused SARS-CoV-2 RBD (Sino Biological) (SARS-CoV-2; mouse, UniProt P0DTC2 330-518)
[2] = molecular target: T1, Mouse IgG1 Fc fused SARS-CoV-2 RBD …; remark: listed apart in the source
[3] = molecular target: SARS-CoV-2 spike, full length, on cells or on pseudotyped/authentic virus (SARS-CoV-2, UniProt P0DTC2 14-1273); assay: cell-based or functional assay
[4] = molecular target: T1, Mouse IgG1 Fc fused SARS-CoV-2 RBD …; assay: BLI, RBD-mFc on AMC tips, global 1:1 fit
[5] = molecular target: T2, SARS-CoV-2 RBD protein Avi-tag biotinylated (AcroBiosystems SPD-C82E9) (SARS-CoV-2, UniProt P0DTC2 330-518)
[6] = molecular target: T1, Mouse IgG1 Fc fused SARS-CoV-2 RBD …; remark: listed apart in the source
[7] = molecular target: T2, SARS-CoV-2 RBD protein Avi-tag …; remark: listed apart in the source
[8] = molecular target: T2, SARS-CoV-2 RBD protein Avi-tag …; remark: listed apart in the source
[9] = molecular target: T3, monomeric human Fc-fused SARS-CoV-2_RBD-SD1 (SARS-CoV-2, UniProt P0DTC2 319-591); assay: BLI kinetics on RBD-mono-hFc, 1:1 fit, mean ± SD, n = 2 [lower graph]
[10] = molecular target: T3, monomeric human Fc-fused …; assay: BLI, RBD-SD1-mono-hFc on AHC tips
[11] = molecular target: T1, Mouse IgG1 Fc fused SARS-CoV-2 RBD …; remark: listed apart in the source
[12] = molecular target: T3, monomeric human Fc-fused …; assay: BLI kinetics on RBD-mono-hFc, 1:1 fit, mean ± SD, n = 2 [upper graph]
[13] = molecular target: T3, monomeric human Fc-fused …; assay: BLI kinetics on RBD-mono-hFc, 1:1 fit, mean ± SD, n = 2

B1: D72-22: h1-VHH72-[change]-GS-hIgG1hinge-hIgG1Fc (Fc fusion)
chain: EVQLVESGGGLVQPGGSLRLSCAASGRTFSEYAMGWFRQAPGKEREFVATISWSGGATYYTDSVKGRFTISRDNAKNTVYLQMNSLRPEDTAVYYCAAAGLGTVVSEWDYDYDYWGQGTLVTVSSGS
EC50 [1]: 0.00439 µg/mL | Kd [2]: 0.0471 nM | koff [2]: 4.87e-05 s⁻¹ | kon [2]: 1.07e+06 M⁻¹ s⁻¹ | IC50, plaque reduction neutralization, authentic SARS-CoV-2 [3]: 0.12 µg/mL

B2: D72-17: h1-VHH72-GS-hIgG1hinge-hIgG1Fc-L234A-L235A-P329G (Fc fusion)
chain: EVQLVESGGGLVQPGGSLRLSCAASGRTFSEYAMGWFRQAPGKEREFVATISWSGGSTYYTDSVKGRFTISRDNAKNTVYLQMNSLRPEDTAVYYCAAAGLGTVVSEWDYDYDYWGQGTLVTVSSGS
notes: ExpiCHO
EC50 [1]: 0.00836 µg/mL | Kd [4]: 0.1 nM | koff [4]: 0.000178 s⁻¹ | kon [4]: 1.77e+06 M⁻¹ s⁻¹

B3: D72-15: VHH72-GS-hIgG1hinge-hIgG1Fc-L234A-L235A-P329G (Fc fusion)
chain: QVQLQESGGGLVQAGGSLRLSCAASGRTFSEYAMGWFRQAPGKEREFVATISWSGGSTYYTDSVKGRFTISRDNAKNTVYLQMNSLKPDDTAVYYCAAAGLGTVVSEWDYDYDYWGQGTQVTVSSGS
notes: ExpiCHO
EC50 [1]: 0.0108 µg/mL | Kd [4]: 0.13 nM | koff [4]: 0.000297 s⁻¹ | kon [4]: 2.29e+06 M⁻¹ s⁻¹

B4: VHH3.36 (VHH)
VHH: QVQLQESGGGLVQAGDSLRLSCVVSGGTFSSYAMGWFRQAPGKERELVAAINWGGISVYYADSVKGRFTISRDNAENTVYLQMNSLKPEDTAVYYCAADPKGWSEWDMEYWGKGTQVTVSS
IC50 [5]: 0.156 nM

B5: VHH3.83 (VHH)
VHH: QVQLQESGGGLVQPGDSLRLSCVLSGGVFTSYAMGWFRQAPGKEREFLAAITFNSDATYYADSVKGRFTISRDNAKNTAYLQMNSLKPNDTAVYSCAAGGNHYNPQYYHDYDKYDHWGQGTQVTVSS
IC50 [5]: 0.162 nM

B6: VHH3.38 (VHH)
VHH: QVQLQESGGGLVQAGGSLRLSCAASGGTFNNYAMAWFRQAPGQERELVAAMFWSGLPKYYADSVKGRFTISTDDAKNTVYLQMNGLKPEDTAVYYCAADSRGWSDVGGMDYWGKGTQVTVSS
IC50 [5]: 0.769 nM

B7: VHH72_h1(E1D,S56A) sequence optimized (SO), monovalent (VHH)
VHH: DVQLVESGGGLVQPGGSLRLSCAASGRTFSEYAMGWFRQAPGKEREFVATISWSGGATYYTDSVKGRFTISRDNAKNTVYLQMNSLRPEDTAVYYCAAAGLGTVVSEWDYDYDYWGQGTLVTVSS
koff [6]: 0.00568 s⁻¹ | koff [7]: 0.0024 s⁻¹

B8: VHH72_h1 (E1D) (VHH)
VHH: DVQLVESGGGLVQPGGSLRLSCAASGRTFSEYAMGWFRQAPGKEREFVATISWSGGSTYYTDSVKGRFTISRDNAKNTVYLQMNSLRPEDTAVYYCAAAGLGTVVSEWDYDYDYWGQGTLVTVSS
Kd [6]: 31.1 nM | koff [6]: 0.0313 s⁻¹ | Kd [8]: 10.4 nM | koff [8]: 0.00204 s⁻¹ | koff [7]: 0.00354 s⁻¹

B9: VHH2.50 (VHH)
VHH: QVQLQESGGGLVQAGGSLRLSCAASGRTFSSIAMGWFRQAPGKEREFVATISWSGGSTYYADSVKGRFTISRDNAKNTVYLQMNSLKPEDTAVYYCAAAGLGTVVSEWDYDYDYWGQGTQVTVSS
IC50 [5]: 27.7 nM

B10: VHH3.29 (VHH)
VHH: QVQLQESGGGLVQAGGSLRLSCVASGRTFSSGGMGWFRQAPGQEREFVAGIGWAGLSSYYLDSVKGRFTISLDNAKNTVYLQMNMLKPEDTGVYYCAADDHGWSAAGMDYLGQGTQVTVSS
IC50 [5]: 0.389 nM

B11: VHH3.115 (VHH)
VHH: QVQLQESGGGLVQTGGSLRLSCAASGLTFSDIAMGWFRQAPGREREFVATISWSGGGTYYAEPVRGRFAISRDNAKNTVYLQMNSLKPEDTAVYYCAAAGAGTVVSEWDYDYDYWGQGTQVTVSS
koff [9]: 0.00157 s⁻¹ | kon [9]: 2.14e+06 M⁻¹ s⁻¹ | IC50 [5]: 0.409 nM | Kd [10]: 0.734 nM

B12: VHH3.35 (VHH)
VHH: QVQLQESGGGLVQAGGSLTLSCEVSGRTNDNYGVGWFRQVPGAERELVAAIRWSSISRYYKDSVKGRFTISRDNAKNTVYLQMDMLKAEDTAVYYCAADPAGWSEFGMEYWGKGTQVTVSS
IC50 [5]: 0.406 nM

B13: VHH3.55 (VHH)
VHH: QVQLQESGGGLVQAGGSLRLSCEVSGRTNDNYGVGWFRQVPGAERELVAAIRWSSISRYYKDSVKGRFTISRDNAKNTVYLQMDMLKPEDTAAYYCAADPAGWSEFGMEYWGKGTQVTVSS
IC50 [5]: 0.322 nM

B14: D72-52: VHH72_h1_E1D_S56A-([change])2-hIgG1hinge_EPKSCdel-hIgG1Fc_LALAPG_Kdel (Fc fusion)
chain: DVQLVESGGGLVQPGGSLRLSCAASGRTFSEYAMGWFRQAPGKEREFVATISWSGGATYYTDSVKGRFTISRDNAKNTVYLQMNSLRPEDTAVYYCAAAGLGTVVSEWDYDYDYWGQGTLVTVSSGGGGSGGGGSDKTHTCPPCPAPEAAGGPSVFLFPPKPKDTLMISRTPEVTCVVVDVSHEDPEVKFNWYVDGVEVHNAKTKPREEQYNSTYRVVSVLTVLHQDWLNGKEYKCKVSNKALGAPIEKTISKAKGQPREPQVYTLPPSRDELTKNQVSLTCLVKGFYPSDIAVEWESNGQPENNYKTTPPVLDSDGSFFLYSKLTVDKSRWQQGNVFSCSVMHEALHNHYTQKSLSLSPG
IC50 [11]: 0.199 µg/mL

B15: VHH3.77 (VHH)
VHH: QVQLQESGGGLVQAGGSLRLSCVSSGRAFGNGAVGWFRQGPGRPREFVATVSWNGGGTYFAESVRGRFTISRDNAKNTVYLQMNNLKPEDTAVYYCALAGEGTVVSEWDYDYEYWGQGTQVTVSS
IC50 [5]: 0.237 nM | Kd [12]: 0.153 nM | koff [12]: 0.000297 s⁻¹ | kon [12]: 1.96e+06 M⁻¹ s⁻¹ | Kd [10]: 0.15 nM

B16: VHH3BE4 (VHH)
VHH: QVQLQESGGGLVQAGGSLRLSCVASGRAFGNGAVGWFRQAPGREREFVATVSWNGGGTYYAESVRGRFTISRDNAKSTVYLQMNSLKPEDTAVYYCASAGEGTVVSEWDYDYDYWGQGTQVTVSS
IC50 [5]: 0.212 nM

B17: VHH3.144 (VHH)
VHH: QVQLQESGGGLVQAGGSLRLSCVASGRAFGNGAVGWFRQAPGREREFVATVSWNGGGTYYAESVRGRFTISRDNAKSTVYLQMNSLKPEDTAVYYCASAGEGTVVSEWDYDYDYWGQGTQVTVSS
IC50 [5]: 0.397 nM

B18: VHH3.17 (VHH)
VHH: QVQLQESGGGLVEAGGSLTLSCAASGRAFGDGAVGWFRQGPGRPREFVATVSWNGGGTYFAESVRGRFTISRDNAKNTVYLQMNNLKPEDTAVYYCALAGEGTVVSEWDYDYEYWGQGTQVTVSS
koff [13]: 0.000358 s⁻¹ | kon [13]: 1.54e+06 M⁻¹ s⁻¹ | IC50 [5]: 0.316 nM | Kd [10]: 0.234 nM

B19: VHH3.149 (VHH)
VHH: QVQLQESGGGLVQAGGSLKLSCAASGRTFSSYALGWFRQAPGTEREFVSAINWFGAPTYYADSVKGRFTISRDNAKNTVYLQMDNLKPEDTAVYYCAADSKGWDPQDMDYWGKGTQVTVSS
IC50 [5]: 0.334 nM

B20: VHH3.47 (VHH)
VHH: QVQLQESGGGLVQAGDSLRLSCAASGHNFSTYAMAWFRQAPGTERELVAAISENDVMRYYADSVKGRFTISRDNAKNMAYLQMNSLKVEDTAVYLCAADPKGWSEWDMDYWGKGTQVTVSS
IC50 [5]: 0.297 nM
